Our source for the binding signal (binding score (0-5)) values is paper PMC3219604.

The test system of the data set is OrfAB-GFP GMF101 V179L ((insertion sequence IS2)). Briefly: EMSA. As to conditions: panel (50- or 87-mer) not stated in material; 20 mM Tris-Cl pH 8.0, 1 mM EDTA, 5 ug/mL calf thymus DNA, 10 nM DNA, 0.11-0.13 uM protein, 30 min at 20 C; gels at 4 C. In general terms: Mobility shift assays separate free from complexed probe on a gel.

With “GGATCCTTAAGTGATAACAGATGTCTGGAAATATAGGGGCAAATCCAGCG (double strand) [IRR 50-mer]”, the binding signal (binding score (0-5)) came to 3.
